# Laboratory results published in patent publication US20240409647A1 (SINOMAB BIOSCIENCE, published 2024).
# T1: human IL-17 receptor subunit E (human, UniProt Q8NFR9 24-454, limits assumed)
# T1 construct: also called hIL17RE
# T1 sequence (looked up): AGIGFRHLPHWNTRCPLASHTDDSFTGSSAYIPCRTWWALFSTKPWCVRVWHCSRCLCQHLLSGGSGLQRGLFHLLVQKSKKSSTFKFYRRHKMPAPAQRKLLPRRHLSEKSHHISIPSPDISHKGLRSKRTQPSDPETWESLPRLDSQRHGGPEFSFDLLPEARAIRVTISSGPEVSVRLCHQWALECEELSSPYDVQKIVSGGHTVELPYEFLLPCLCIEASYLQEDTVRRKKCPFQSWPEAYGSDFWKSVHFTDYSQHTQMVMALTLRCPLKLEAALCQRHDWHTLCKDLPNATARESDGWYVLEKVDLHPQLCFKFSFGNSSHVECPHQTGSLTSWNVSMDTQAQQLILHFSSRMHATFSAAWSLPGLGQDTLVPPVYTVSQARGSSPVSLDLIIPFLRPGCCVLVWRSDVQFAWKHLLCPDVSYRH
# T2: human IL-17 receptor subunit C (human, UniProt Q8NAC3-2 21-467, limits assumed)
# T2 construct: also called IL17RC; hIL17RC
# T2 sequence (looked up): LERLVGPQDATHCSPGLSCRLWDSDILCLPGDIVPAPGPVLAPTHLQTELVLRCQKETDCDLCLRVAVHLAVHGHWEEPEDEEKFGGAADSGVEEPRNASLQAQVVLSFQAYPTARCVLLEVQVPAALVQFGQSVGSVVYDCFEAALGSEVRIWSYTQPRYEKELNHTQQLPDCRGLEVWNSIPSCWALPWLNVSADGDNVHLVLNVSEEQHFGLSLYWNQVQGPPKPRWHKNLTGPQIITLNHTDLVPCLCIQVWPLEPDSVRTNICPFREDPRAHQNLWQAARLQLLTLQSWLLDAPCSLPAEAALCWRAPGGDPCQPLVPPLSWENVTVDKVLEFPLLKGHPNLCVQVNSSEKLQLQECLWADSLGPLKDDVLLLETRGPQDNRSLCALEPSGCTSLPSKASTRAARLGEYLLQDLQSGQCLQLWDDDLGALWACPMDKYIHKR
# T3: human IL-17RB protein (recombinant, R&D systems) (human)
# T3 construct: Bought protein; also called hIL17RB
# T3 sequence (Q9NRM6 whole entry, looked up): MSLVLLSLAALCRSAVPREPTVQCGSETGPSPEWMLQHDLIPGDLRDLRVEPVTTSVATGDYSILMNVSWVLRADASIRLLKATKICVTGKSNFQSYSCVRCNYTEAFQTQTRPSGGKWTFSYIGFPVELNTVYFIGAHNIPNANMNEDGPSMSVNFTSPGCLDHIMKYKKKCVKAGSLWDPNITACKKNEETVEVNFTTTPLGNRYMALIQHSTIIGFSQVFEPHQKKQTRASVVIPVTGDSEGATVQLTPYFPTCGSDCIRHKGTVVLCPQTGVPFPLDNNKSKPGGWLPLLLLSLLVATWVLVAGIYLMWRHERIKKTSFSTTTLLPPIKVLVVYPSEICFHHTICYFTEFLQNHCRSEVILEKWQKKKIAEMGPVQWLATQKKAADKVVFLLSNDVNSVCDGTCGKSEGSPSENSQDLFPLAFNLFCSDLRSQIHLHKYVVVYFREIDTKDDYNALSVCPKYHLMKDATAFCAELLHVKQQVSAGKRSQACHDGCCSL
# T4: human IL-17 receptor subunit D (human, UniProt Q8NFM7 28-299, limits assumed)
# T4 construct: also called IL17RD; hIL 17RD
# T4 sequence (looked up): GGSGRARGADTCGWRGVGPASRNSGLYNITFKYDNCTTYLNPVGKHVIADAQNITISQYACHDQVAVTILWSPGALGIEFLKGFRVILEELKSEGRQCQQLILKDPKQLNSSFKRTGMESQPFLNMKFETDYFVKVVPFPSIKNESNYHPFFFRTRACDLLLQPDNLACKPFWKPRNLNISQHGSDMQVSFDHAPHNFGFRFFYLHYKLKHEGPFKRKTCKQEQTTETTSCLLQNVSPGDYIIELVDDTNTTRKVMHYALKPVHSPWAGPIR
# T5: cynomolgus monkey IL-17RB protein (recombinant, R&D systems) (cynomolgus monkey, UniProt A0A2K5TUK1 18-289)
# T5 construct: also called cynomolgus IL17RB; Cyno-IL17RB
# T5 sequence: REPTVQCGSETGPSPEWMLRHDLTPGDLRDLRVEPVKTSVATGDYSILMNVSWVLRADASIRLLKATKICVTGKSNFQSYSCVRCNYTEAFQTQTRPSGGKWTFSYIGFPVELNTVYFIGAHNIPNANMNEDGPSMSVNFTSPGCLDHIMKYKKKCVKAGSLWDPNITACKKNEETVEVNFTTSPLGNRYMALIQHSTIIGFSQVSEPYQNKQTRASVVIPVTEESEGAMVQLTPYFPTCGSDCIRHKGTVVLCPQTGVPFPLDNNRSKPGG
# B1: SM17 (antibody, human IgG4 S228P, kappa, V domains shown)
# VH: QVQLVQSGAEVKKPGASVKVSCKASGYTFISYWMNWVRQAPGQGLEWMGRIDPYDSEIQYNQKFKDRVTMTRDTSISTAYMELSRLRSDDTAVYYCARSGGFDWFAYWGQGTLVTVSS
# VL: DIQMTQSPSSLSASVGDRVTITCRASENINSNLAWYQQKPGKAPKLLLYDVTNLADGVPSRFSGSGSGTDYTLTISSLQPEDFATYYCQHFWGPPYTFGGGTKVEIKR
# notes: other paragraphs and claim 15 call the same entries VH and VL; also called humanized anti-IL17RB monoclonal antibody
# Columns and labels:
# [1] = target: T6, human IL-17 receptor subunit A (human, UniProt Q96F46 33-320); experiment: ELISA, coated receptor; SM17 at 0.08 µg/mL; well 2
# T6 construct: also called IL17RA; hIL17RA
# [2] = target: T1, human IL-17 receptor subunit E; experiment: ELISA, coated receptor; SM17 at 0.08 µg/mL; well 2
# [3] = target: T2, human IL-17 receptor subunit C; experiment: ELISA, coated receptor; SM17 at 0.08 µg/mL; well 2
# [4] = target: T3, human IL-17RB protein (recombinant, R&D …); experiment: ELISA, coated receptor; SM17 at 0.08 µg/mL; well 2
# [5] = target: T4, human IL-17 receptor subunit D; experiment: ELISA, coated receptor; SM17 at 0.08 µg/mL; well 2
# [6] = target: T6, human IL-17 receptor subunit A; experiment: ELISA, coated receptor; SM17 at 0.08 µg/mL; well 1
# [7] = target: T1, human IL-17 receptor subunit E; experiment: ELISA, coated receptor; SM17 at 0.08 µg/mL; well 1
# [8] = target: T2, human IL-17 receptor subunit C; experiment: ELISA, coated receptor; SM17 at 0.08 µg/mL; well 1
# [9] = target: T3, human IL-17RB protein (recombinant, R&D …); experiment: ELISA, coated receptor; SM17 at 0.08 µg/mL; well 1
# [10] = target: T4, human IL-17 receptor subunit D; experiment: ELISA, coated receptor; SM17 at 0.08 µg/mL; well 1
# [11] = target: T5, cynomolgus monkey IL-17RB protein …; experiment: BLI (Octet RED96), SM17 captured via anti-human Fab CH1, IL17RB in solution; trial 1
# From the text: Irrelevant antibody (SM03, anti-human CD22 chimeric IgG1 antibody, SinoMab BioScience Limited) was used as the control reference.
binder,measurement,setting,value
B1,OD 450 nm Absorption,[1],0.06 OD450
same,OD 450 nm Absorption,[2],0 OD450
same,OD 450 nm Absorption,[3],-0.02 OD450
same,OD 450 nm Absorption,[4],0.64 OD450
same,OD 450 nm Absorption,[5],0.01 OD450
same,OD 450 nm Absorption,[6],0 OD450
same,OD 450 nm Absorption,[7],-0.04 OD450
same,OD 450 nm Absorption,[8],0.02 OD450
same,OD 450 nm Absorption,[9],0.79 OD450
same,OD 450 nm Absorption,[10],0.03 OD450
same,Kd,[11],0.852 nM
same,koff,[11],2.73e-05 s⁻¹
same,kon,[11],32100 M⁻¹ s⁻¹
